Assay results from PMC7424196 (iScience, 2020).
Where two headings read alike, the source gives them in different places.

T1: γc extracellular domain (UniProt P34902 23-263)
T1 sequence (looked up): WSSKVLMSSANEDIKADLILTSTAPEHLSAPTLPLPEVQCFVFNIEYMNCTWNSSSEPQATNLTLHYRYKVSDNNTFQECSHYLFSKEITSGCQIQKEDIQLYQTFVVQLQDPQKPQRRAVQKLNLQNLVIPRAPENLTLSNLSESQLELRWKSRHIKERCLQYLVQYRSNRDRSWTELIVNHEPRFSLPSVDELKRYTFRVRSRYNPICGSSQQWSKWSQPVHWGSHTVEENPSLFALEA


Columns and labels:
γc extracellular domain [1] = molecular target: T1, γc extracellular domain; assay: SPR
γc extracellular domain [2] = molecular target: T1, γc extracellular domain; assay: SPR; remark: listed apart in the source

Kd (γc extracellular domain [1]) [µM]	Kd (γc extracellular domain [2]) [µM]	koff (γc extracellular domain [2]) [s⁻¹]	kon (γc extracellular domain [2]) [M⁻¹ s⁻¹]	Binder
577 ± 40	–	–	–	IL-2Rβ extracellular domain (domain or fragment, UniProt P16297 27-240, looked up) AVKNCSHLECFYNSRANVSCMWSHEEALNVTTCHVHAKSNLRHWNKTCELTLVRQASWACNLILGSFPESQSLTSVDLLDINVVCWEEKGWRRVKTCDFHPFDNLRLVAPHSLQVLHIDTQRCNISWKVSQVSHYIEPYLEFEARRRLLGHSWEDASVLSLKQRQQWLFLEMLIPSTSYEVQVRVKAQRNNTGTWSPWSQPLTFRTRPADPMKE
–	0.0373 ± 0.0004	0.000221	5930	IL-7Rα extracellular domain (domain or fragment, UniProt P16872 21-239, looked up) ESGNAQDGDLEDADADDHSFWCHSQLEVDGSQHLLTCAFNDSDINTANLEFQICGALLRVKCLTLNKLQDIYFIKTSEFLLIGSSNICVKLGQKNLTCKNMAINTIVKAEAPSDLKVVYRKEANDFLVTFNAPHLKKKYLKKVKHDVAYRPARGESNWTHVSLFHTRTTIPQRKLRPKAMYEIKVRSIPHNDYFKGFWSEWSPSSTFETPEPKNQGGWD
